From patent US11807887B2, “Compositions and methods related to nucleic acid synthesis” (Nuclera Ltd., priority 2015, dated 2023)

What was measured:
Format in all cases: biochemical
[1] = test system: single-stranded DNA initiator (SEQ ID NO: 7); assay: Addition of 3′-O-azidomethyl nucleotide triphosphates to a DNA initiator by TdT orthologs, capillary electrophoresis; conditions: for performance in adding 3′-O-azidomethyl dTTP and 3′-O-azidomethyl dCTP compared to Bos taurus TdT: 20 min, capillary electrophoresis; for ability to add 3′-O reversibly terminated (blocked) nucleotide triphosphates: 3′-O-azidomethyl nucleotide triphosphate, FIG. 3
Description: (A) A single-stranded DNA initiator was incubated with TdT with the indicated species for 60 min in the above mentioned buffer and reaction conditions. Reactions were then analysed by capillary electrophoresis and a subset of chromatograms are shown. (B) Fraction of DNA initiator strand converted to N+1 species (addition of 3′-O-azidomethyl dTTP) in one hour. (C) Three TdT orthologs were reacted with 3′-O-azidomethyl dTTP and 3′-O-azidomethyl dCTP for 20 min.
A single-stranded DNA initiator (SEQ ID NO: 7) was incubated with purified, recombinant TdT orthologs, required salts (50 mM potassium acetate, 20 mM tris acetate pH 7.9, 1.5 mM cobalt chloride, Saccharomyces cerevisiae inorganic pyrophosphatase), and 3′-O-azidomethyl dTTP at 37° C. for 60 min. The 3′-blocked nucleotide triphosphate was at a concentration of 1 mM and the DNA initiator at 200 nM and analysed via capillary electrophoresis as shown in FIG. 3(A).
The experiment was repeated with the exception that both 3′-O-azidomethyl dTTP and 3′-O-azidomethyl dCTP was used as the 3′-blocked nucleotide triphosphate. The reaction was stopped after 20 min and analysed via capillary electrophoresis.

[2] = test system: single-stranded DNA initiator (SEQ ID NO: 7); assay: Engineered Lepisosteus oculatus TdT versus Bos taurus TdT, denaturing PAGE gel; conditions: 3′-O-azidomethyl dTTP, 37° C., 10 min
Description: A single-stranded DNA initiator (SEQ ID NO: 7) was incubated with a purified, recombinant engineered form of Lepisosteus oculatus TdT, required salts, cobalt chloride, Saccharomyces cerevisiae inorganic pyrophosphatase, and 3′-O-azidomethyl dTTP at 37° C. for 10 min.

[3] = test system: single-stranded DNA initiator (SEQ ID NO: 7); assay: Engineered versus wild-type Lepisosteus oculatus TdT, addition of 3′-reversibly blocked dNTP measured by PAGE; conditions: 3′-reversibly blocked dCTP, dGTP or dTTP, 1 mM, 37° C., 20 min
Description: Addition of the dNTP was measured by PAGE and the conversion relative to wild-type TdT was plotted.
A single-stranded DNA initiator (SEQ ID NO: 7) was incubated with either a purified wild-type Lepisosteus oculatus TdT or a purified, recombinant engineered form of Lepisosteus oculatus TdT (SEQ ID NO: 8), required salts, cobalt chloride, Saccharomyces cerevisiae inorganic pyrophosphatase, and 3′-O-azidomethyl dTTP at 37° C. for 20 min.

B1: Lepisosteus oculatus TdT: terminal deoxynucleotidyl transferase sequence from Lepisosteus oculatus (UniProt: W5MK82) (protein, listed as Lepisosteus oculatus)
chain: MLHIPIFPPIKKRQKLPESRNSCKYEVKFSEVAIFLVERKMGSSRRKFLTNLARSKGFRIEDVLSDAVTHVVAEDNSADELWQWLQNSSLGDLSKIEVLDISWFTECMGAGKPVQVEARHCLVKSCPVIDQYLEPSTVETVSQYACQRRTTMENHNQIFTDAFAILAENAEFNESEGPCLAFMRAASLLKSLPHAISSSKDLEGLPCLGDQTKAVIEDILEYGQCSKVQDVLCDDRYQTIKLFTSVFGVGLKTAEKWYRKGFHSLEEVQADNAIHFTKMQKAGFLYYDDISAAVCKAEAQAIGQIVEETVRLIAPDAIVTLTGGFRRGKECGHDVDFLITTPEMGKEVWLLNRLINRLQNQGILLYYDIVESTFDKTRLPCRKFEAMDHFQKCFAIIKLKKELAAGRVQKDWKAIRVDFVAPPVDNFAFALLGWTGSRQFERDLRRFARHERKMLLDNHALYDKTKKYLKKKTTNNYLALNDVCSDLSEWHYKG
[1]
  performance in adding 3′-O-azidomethyl dTTP and 3′-O-azidomethyl dCTP compared to Bos taurus TdT: consistently perform better compared to Bos taurus TdT

B2: engineered variant (SEQ ID NO: 8): variant of SEQ ID NO: 2 engineered for improved activity by alteration of the amino acid sequence (protein)
chain: MLHIPIFPPIKKRQKLPESRNSCKYEVKFSEVAIFLVERKMGSSRRKFLTNLARSKGFRIEDVLSDAVTHVVAENNSADELLQWLQNSSLGDLSKIEVLDISWFTECMGAGKPVQVEARHCLVKSCPVIDQYLEPSTVETVSQYACQRRTTMENHNQIFTDAFAILAENAEFNESEGPCLAFMRAASLLKSLPHAISSSKDLEGLPCLGDQTKAVIEDILEYGQCSKVQDVLCDDRYQTIKLFTSVFGVGLRTAEKWYRKGFHSLEEVQADNAIHFTKMQKAGFLYYDDISAAVCKAEAQAIGQIVEETVRLIAPDAIVTLTGGFRRGKECGHDVDFLITTPEMGKEVWLLNRLINRLQNQGILLYYDIVESTFDKTRLPCRKFEAMDHFQKCFAIIKLKKELAAGRVQKDWKAIRVDFVAPPVDNFAFALLGWTGSRQFERDLRRFARHERKMLLDNHALYDKTKKIFLPAKTEEDIFAHLGLDYIDPWQRNA
[2]
  incorporation of 3′-reversibly blocked nucleotides versus Bos Taurus TdT: much better than Bos Taurus TdT
  incorporation of 3′-reversibly blocked nucleotides versus wild-type Lepisosteus oculatus TdT: better than the wild-type Lepisosteus oculatus TdT
[3]
  conversion of initiator strand of length n to n+1 versus wild-type Lepisosteus oculatus TdT: improved ability to convert the initiator strand of length n to a strand of length n+1

B3: Sarcophilus harrisii TdT: terminal deoxynucleotidyl transferase sequence from Sarcophilus harrisii (UniProt: G3VQ55) (protein, listed as Sarcophilus harrisii)
chain: MHRIRTTDSDHGKKRQKKMDAISSKLYEIKFHEFVLFILEKKMGATRRTFLMDLARKKGFRVESELSNSVTHIVAENNSGSDVLAWLEAHKLETTAHFELLDVSWLIECMKVGKPVDTKGKYQLVESSIASANPDPNEGMLKIQSPAMNAISPYACQRRTTLNNHNQRFTDAFEILAKNYEFRENHGHCLTFLRATSVLKCLPFAIVSMKDAEGLPWIGDEVKGIMEEIIEDGQSLEVQAVLNDERYQAFKLFTSVFGVGLKTAEKWYRMGFRTLSKIQSDKSLKFTKMQKAGFLYYEDLISCVSKAEADAVSLIVKEAVWTFLPDALITITGGFRRGKEFGHDVDFLITSPGGEKEQVDQLLQKVTNLWEKQGLLLYYDLMESTFEDLKLPSRKVDALDHFQKCFLILKLYCQRGDRSKWEGPEGSNGLQTKNWKAIRVDLVVCPYDRYAYALLGWSGSRQFERDLRRYATHEKKMMLDNHALYDKTKRTFLKAESEEEIFSHLGLEYIEPWERNA
[1]
  performance in adding 3′-O-azidomethyl dTTP and 3′-O-azidomethyl dCTP compared to Bos taurus TdT: consistently perform better compared to Bos taurus TdT

B4: Bos taurus TdT: commercially available terminal deoxynucleotidyl transferase from Bos taurus (UniProt: P06526) (protein, listed as Bos taurus)
chain: MDPLCTASSGPRKKRPRQVGASMASPPHDIKFQNLVLFILEKKMGTTRRNFLMELARRKGFRVENELSDSVTHIVAENNSGSEVLEWLQVQNIRASSQLELLDVSWLIESMGAGKPVEITGKHQLVVRTDYSATPNPGFQKTPPLAVKKISQYACQRKTTLNNYNHIFTDAFEILAENSEFKENEVSYVTFMRAASVLKSLPFTIISMKDTEGIPCLGDKVKCIIEEIIEDGESSEVKAVLNDERYQSFKLFTSVFGVGLKTSEKWFRMGFRSLSKIMSDKTLKFTKMQKAGFLYYEDLVSCVTRAEAEAVGVLVKEAVWAFLPDAFVTMTGGFRRGKKIGHDVDFLITSPGSAEDEEQLLPKVINLWEKKGLLLYYDLVESTFEKFKLPSRQVDTLDHFQKCFLILKLHHQRVDSSKSNQQEGKTWKAIRVDLVMCPYENRAFALLGWTGSRQFERDIRRYATHERKMMLDNHALYDKTKRVFLKAESEEEIFAHLGLDYIEPWERNA
[1]
  ability to add 3′-O reversibly terminated (blocked) nucleotide triphosphates: only efficiently adds irreversibly blocked nucleotides
[1]; listed as recombinant TdT sourced from calf thymus
  ability to add 3′-O reversibly terminated (blocked) nucleotide triphosphates: unable to add 3′-O-terminated nucleotide triphosphates in a quantitative fashion
